Source: paper doi:10.1101/2022.05.13.491770 (bioRxiv, 2022)

How the values were obtained:
[1] = target: SARS-CoV-2 WA.1 spike protein (V-PLEX COVID-19 Panel 24) (SARS-CoV-2 WA.1 (ancestral), UniProt P0DTC2, strain); test: electrochemiluminescence multiplex binding assay
[2] = target: recombinant SARS-CoV-2 RBD (SARS-CoV-2, ancestral strain (assumed), UniProt P0DTC2); test: BLI

B1: 002-S21F2 full-length immunoglobulin G (IgG) (antibody, V domains shown)
VH: EVQLVQSGAEVKKPGESLKISCKASGYNFAYYWIGWVRQMPGKGLEWMGIIYPGDSDTRYSPSFQGQVTISADKSISTAYLQWSSLKASDTAMYYCARGEMTAVFGDYWGQGTLVTVSS
VL: DIQMTQSPSSLSASVGDRVTITCQASQDISNYLNWYQQKPGKAPKLLIYDASNLETGVPSRFSGSGSGTDFTLTISSLQPEDIATYYCQQYKILLTWTFGQGTKVEIK
[1]
  binding result: binds
[2]
  binding result: binds
